From paper PMC5645147, “Binding of a C-type lectin’s coiled-coil domain to the Domeless receptor directly activates the JAK/STAT pathway in the shrimp immune response to bacterial infection” come the findings set out here.

The target of this series is T1, native STAT, LPS-challenged shrimp (Marsupenaeus japonicus (kuruma shrimp), UniProt D0VYJ1 1-801).
T1 sequence: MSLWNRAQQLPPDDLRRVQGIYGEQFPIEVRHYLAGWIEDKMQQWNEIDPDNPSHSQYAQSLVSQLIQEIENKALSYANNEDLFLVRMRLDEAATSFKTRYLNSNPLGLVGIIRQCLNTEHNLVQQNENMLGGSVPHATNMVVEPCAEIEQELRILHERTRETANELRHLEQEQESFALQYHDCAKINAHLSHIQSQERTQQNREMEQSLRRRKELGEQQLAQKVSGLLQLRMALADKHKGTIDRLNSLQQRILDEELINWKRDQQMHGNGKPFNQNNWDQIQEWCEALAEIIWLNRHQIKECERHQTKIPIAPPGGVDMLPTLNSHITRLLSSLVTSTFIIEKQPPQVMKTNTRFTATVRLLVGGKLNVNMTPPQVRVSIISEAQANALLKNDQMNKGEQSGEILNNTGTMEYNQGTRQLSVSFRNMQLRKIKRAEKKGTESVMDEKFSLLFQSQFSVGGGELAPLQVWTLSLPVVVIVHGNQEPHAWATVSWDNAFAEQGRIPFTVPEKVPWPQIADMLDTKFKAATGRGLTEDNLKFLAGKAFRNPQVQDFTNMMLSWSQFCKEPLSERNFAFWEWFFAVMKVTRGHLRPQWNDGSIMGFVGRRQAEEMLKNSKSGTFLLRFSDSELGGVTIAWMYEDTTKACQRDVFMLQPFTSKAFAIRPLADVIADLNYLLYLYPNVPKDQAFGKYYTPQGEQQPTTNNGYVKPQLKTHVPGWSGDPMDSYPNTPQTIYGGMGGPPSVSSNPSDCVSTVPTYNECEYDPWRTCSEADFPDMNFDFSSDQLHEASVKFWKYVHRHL
Briefly: EMSA; STAT from LPS-injected shrimp; binding increased; 2 ug protein, 20 fmol Dig-probe, Beyotime EMSA binding buffer (from 5x; composition and pH not stated), 20 min with probe, room temperature (stated for competition); 6% PAGE, 0.5x TBE. The settings on record: chain copies: 2, blunt.

B1: CruI-1 promoter STAT probe (dsDNA)
DNA 1: GCGTAAGGTTTTCTTGGAATA
DNA 2: TATTCCAAGAAAACCTTACGC
B1: the binding result is listed as “binds”.
